Laboratory results as given in paper PMC7954794, “Protein context shapes the specificity of SH3 domain-mediated interactions in vivo” (Nature Communications, 2021).

Test system: Abp1 PPIs
Assay: DHFR-PCA of Abp1 SH3-swapped baits (Fig. 2B-D, S2C, S2F);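 for Protein-protein interaction distance between Abp1 SH3-swapped baits, to ABP1: Euclidean distance between DHFR-PCA score profiles of the baits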;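 for Protein-protein interaction distance between Abp1 SH3-swapped baits, to BEM1-2: Euclidean distance between DHFR-PCA score profiles of the baits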;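 for Protein-protein interaction distance between Abp1 SH3-swapped baits, to BOI1: Euclidean distance between DHFR-PCA score profiles of the baits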;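 for Protein-protein interaction distance between Abp1 SH3-swapped baits, to BZZ1-1: Euclidean distance between DHFR-PCA score profiles of the baits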
Type: cell-based, Saccharomyces cerevisiae
Procedure, shortened: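 Yeast DHFR-PCA in which Abp1 baits, carrying their SH3 replaced by CRISPR–Cas9 with one of 27 yeast SH3s or human CTTN, HCLS1 or DBNL SH3s, were mated against 575 SH3-associated DHFR F[3] preys plus 40 negative controls. Four tests were run per PPI. Diploids were selected twice (48 h, 30 °C), then grown 4 days on PCA selection media.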

[1] = number of PPIs, difference, Abp1 SH3-swapped with the listed SH3, Fig2D,S2F

B1: MYO5 (protein, UniProt Q04439 1-1219, looked up)
Myosin-5: MAILKRGARKKVHQEPAKRSANIKKATFDSSKKKEVGVSDLTLLSKISDEAINENLKKRFLNATIYTYIGHVLISVNPFRDLGIYTDAVMNEYKGKNRLEVPPHVFAIAESMYYNMKSYNENQCVIISGESGAGKTEAAKRIMQYIAAASSTHTESIGKIKDMVLATNPLLESFGCAKTLRNNNSSRHGKYLEIKFNNQFEPCAGNITNYLLEKQRVVSQIKNERNFHIFYQFTKGASDAYRQTFGVQKPEQYVYTAAAGCISAETIDDLQDYQETLKAMRVIGLGQEEQDQIFRMLAAILWIGNVSFIENEEGNAQVRDTSVTDFVAYLLQIDSQLLIKSLVERIMETNHGMKRGSVYHVPLNIVQADAVRDALAKAIYNNLFDWIVSRVNKSLQAFPGAEKSIGILDIYGFEIFEHNSFEQICINYVNEKLQQIFIQLTLKSEQETYEREKIQWTPIKYFDNKVVCDLIEARRPPGIFAAMNDSVATAHADSNAADQAFAQRLNLFTTNPHFDLRSNKFVIKHYAGDVTYDIDGITDKNKDQLQKDLVELIGTTTNTFLATIFPDTVDRESKRRPPTAGDKIIKSANDLVETLSKAQPSYIRTIKPNETKSPNDYDDRQVLHQIKYLGLQENVRIRRAGFAYRQVFEKFVERFYLLSPHCSYAGDYTWQGDTLDAVKYILQDSSIPQQEYQLGVTSVFIKTPETLFALEHMRDRYWHNMAARIQRAWRRFLQRRIDAATKIQRTIRERKEGNKYEKLRDYGTKVLGGRKERRSMSLLGYRAFMGDYLSCNESKSKGAYIKRQVSIKEKVIFSIHGEALHTKFGRSAQRLKKTFLLTPTTLYIVGQTLVQNAMTYTQDYKIDVRNIQAVSLTNLQDDWVAIKLASSGQPDPLINTYFKTELITHLKRLNDKIQIKIGSAIEYQKKPGKLHSVKCQINESAPKYGDIYKSSTISVRRGNPPNSQVHKKPRKKSSISSGYHASSSQATRRPVSIAAAQHVPTAPASRHSKKPAPPPPGMQNKAATRRSVPNPASTLTASQSNARPSPPTAATRATPAATPAAAAMGSGRQANIPPPPPPPPPSSKPKEPMFEAAYDFPGSGSPSELPLKKGDVIYITREEPSGWSLGKLLDGSKEGWVPTAYMKPHSGNNNIPTPPQNRDVPKPVLNSVQHDNTSANVIPAAAQASLGDGLANALAARANKMRLESDDEEANEDEEEDDW
Protein-protein interaction distance between Abp1 SH3-swapped baits, to ABP1 (Abp1 bait with swapped SH3, distance to bait with ABP1 SH3, sheet Fig2C): 12.37
Protein-protein interaction distance between Abp1 SH3-swapped baits, to BBC1 (distance to Abp1 bait with BBC1 SH3, sheet Fig2C): 12.56
Protein-protein interaction distance between Abp1 SH3-swapped baits, to BEM1-1 (distance to Abp1 bait with BEM1-1 SH3, sheet Fig2C): 17.04
Protein-protein interaction distance between Abp1 SH3-swapped baits, to BEM1-2 (distance to Abp1 bait with BEM1-2 SH3, sheet Fig2C): 34.62
Protein-protein interaction distance between Abp1 SH3-swapped baits, to BOI1 (distance to Abp1 bait with BOI1 SH3, sheet Fig2C): 14.33
Protein-protein interaction distance between Abp1 SH3-swapped baits, to BOI2 (distance to Abp1 bait with BOI2 SH3, sheet Fig2C): 17.59
Protein-protein interaction distance between Abp1 SH3-swapped baits, to BUD14 (distance to Abp1 bait with BUD14 SH3, sheet Fig2C): 20.27
Protein-protein interaction distance between Abp1 SH3-swapped baits, to BZZ1-1 (distance to Abp1 bait with BZZ1-1 SH3, sheet Fig2C): 9.674
Protein-protein interaction distance between Abp1 SH3-swapped baits, to BZZ1-2 (distance to Abp1 bait with BZZ1-2 SH3, sheet Fig2C): 13.83
Protein-protein interaction distance between Abp1 SH3-swapped baits, to CDC25 (distance to Abp1 bait with CDC25 SH3, sheet Fig2C): 28.8
Protein-protein interaction distance between Abp1 SH3-swapped baits, to CTTN (distance to Abp1 bait with CTTN SH3, sheet Fig2C): 14.85
Protein-protein interaction distance between Abp1 SH3-swapped baits, to CYK3 (distance to Abp1 bait with CYK3 SH3, sheet Fig2C): 29.49
Protein-protein interaction distance between Abp1 SH3-swapped baits, to DBNL (distance to Abp1 bait with DBNL SH3, sheet Fig2C): 9.722
Protein-protein interaction distance between Abp1 SH3-swapped baits, to FUS1 (distance to Abp1 bait with FUS1 SH3, sheet Fig2C): 21.47
Protein-protein interaction distance between Abp1 SH3-swapped baits, to HCLS1 (distance to Abp1 bait with HCLS1 SH3, sheet Fig2C): 10.37
Protein-protein interaction distance between Abp1 SH3-swapped baits, to HOF1 (distance to Abp1 bait with HOF1 SH3, sheet Fig2C): 33.29
Protein-protein interaction distance between Abp1 SH3-swapped baits, to HSE1 (distance to Abp1 bait with HSE1 SH3, sheet Fig2C): 10.84
Protein-protein interaction distance between Abp1 SH3-swapped baits, to LSB1 (distance to Abp1 bait with LSB1 SH3, sheet Fig2C): 7.822
Protein-protein interaction distance between Abp1 SH3-swapped baits, to LSB3 (distance to Abp1 bait with LSB3 SH3, sheet Fig2C): 8.063
Protein-protein interaction distance between Abp1 SH3-swapped baits, to MYO3 (distance to Abp1 bait with MYO3 SH3, sheet Fig2C): 5.861
Protein-protein interaction distance between Abp1 SH3-swapped baits, to MYO5 (distance to Abp1 bait with MYO5 SH3, sheet Fig2C): 0.00
Protein-protein interaction distance between Abp1 SH3-swapped baits, to NBP2 (distance to Abp1 bait with NBP2 SH3, sheet Fig2C): 19.41
Protein-protein interaction distance between Abp1 SH3-swapped baits, to PEX13 (distance to Abp1 bait with PEX13 SH3, sheet Fig2C): 7.969
Protein-protein interaction distance between Abp1 SH3-swapped baits, to PIN3 (distance to Abp1 bait with PIN3 SH3, sheet Fig2C): 6.67
Protein-protein interaction distance between Abp1 SH3-swapped baits, to RVS167 (distance to Abp1 bait with RVS167 SH3, sheet Fig2C): 7.689
Protein-protein interaction distance between Abp1 SH3-swapped baits, to SDC25 (distance to Abp1 bait with SDC25 SH3, sheet Fig2C): 35.29
Protein-protein interaction distance between Abp1 SH3-swapped baits, to SHO1 (distance to Abp1 bait with SHO1 SH3, sheet Fig2C): 10.26
Protein-protein interaction distance between Abp1 SH3-swapped baits, to SLA1-1 (distance to Abp1 bait with SLA1-1 SH3, sheet Fig2C): 31.36
Protein-protein interaction distance between Abp1 SH3-swapped baits, to SLA1-2 (distance to Abp1 bait with SLA1-2 SH3, sheet Fig2C): 22.13
Protein-protein interaction distance between Abp1 SH3-swapped baits, to SLA1-3 (distance to Abp1 bait with SLA1-3 SH3, sheet Fig2C): 7.257
Protein-protein interaction distance between Abp1 SH3-swapped baits, to YSC84 (distance to Abp1 bait with YSC84 SH3, sheet Fig2C): 8.128
PPIs gained by Abp1 - SH3-dependent PPIs gained by Abp1 [1]: 27
SH3-dependent PPIs - SH3-dependent PPIs gained by Abp1 [1]: 16
SH3-dependent PPIs gained by Abp1 (number of PPIs, Abp1 SH3-swapped with the listed SH3, DHFR-PCA, Fig2D,S2F): 3
